Measured values as given in US20240150465A1 (Chugai, published 2024).

T1: recombinant human DLL3 (human, UniProt Q9NYJ7 27-492)
T1 sequence: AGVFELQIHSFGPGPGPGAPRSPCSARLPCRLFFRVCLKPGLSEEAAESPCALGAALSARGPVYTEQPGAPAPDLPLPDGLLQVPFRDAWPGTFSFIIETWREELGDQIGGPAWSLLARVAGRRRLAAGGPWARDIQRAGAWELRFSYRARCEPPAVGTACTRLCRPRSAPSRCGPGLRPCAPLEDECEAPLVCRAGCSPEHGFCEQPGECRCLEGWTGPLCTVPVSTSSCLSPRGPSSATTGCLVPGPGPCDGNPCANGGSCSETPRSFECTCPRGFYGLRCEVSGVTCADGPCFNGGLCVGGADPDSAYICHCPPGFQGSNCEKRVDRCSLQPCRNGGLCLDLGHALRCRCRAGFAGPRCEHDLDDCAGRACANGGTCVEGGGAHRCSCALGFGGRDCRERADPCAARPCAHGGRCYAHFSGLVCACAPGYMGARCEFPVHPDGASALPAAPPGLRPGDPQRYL

B1: DL306-SG1 (antibody, human IgG1, kappa, V domains shown)
VH: EVQLQQSGPELVKPGASVKMSCRASGYTFTDYYMKWVKQSHGKSLEWIGDINPNNGDTFYNQKFKGKATLTIDKSSSTAYMQLNSLTSDDSAVYYCARDGNYAYFDYWGQGTTLTVSS
VL: DIVLTQSPASLAVSLGQRATISCRASKSVSTSGYSYMHWYQQKPGQPPKLLIFLASNLESGVPARFSGSGSGTDFTLNIHPVEEEDAATYYCQHSRHLPWTFGGGTKLEIKR
notes: Variable regions of a previously reported anti-DLL3 antibody on SG1/SK1; Also used biotin-labelled as a first antibody
B2: DLL3-14-SG1 (antibody, human IgG1, kappa, V domains shown)
VH: QVQLVQSGAEVKKPGASVKVSCKASGYTFTNYYMHWVRQAPGLGLEWMGIINPSDGSTSYAQKFQGRVTMTRDTSTNTVYMDLSSLRSEDTAVYYCARGGNSAFYSYYDMDVWGQGTTVTVSS
VL: DVVMTQTPLSLPVTLGQPASISCRSSQSLVYRDGNTYLSWFQQRPGQSPRRLIYKVSNWQSGVPDRFSGGGSGTDFTLKISRVEAEDVGVYYCMQGTHWPPTFGQGTKVEIKR
notes: Variable regions of a previously reported anti-DLL3 antibody on SG1/SK1; Used as a second antibody only
B3: DL309-SG1 (antibody, human IgG1, kappa, V domains shown)
VH: QVQLQQSGGDLMKPGASVKISCKAAGYTFSNYYIEWVKQRPGHGLEWIGEILPGSGSTTYNEKFKGKASFTADTSSNTAYMQLSSLTSEDSAVYYCARWGAREPGFPYWGQGTLVTVSA
VL: DIVMTQSQKFMSTSVGDRVSVTCKASQNVGTNVAWYQQKPGQSPKALIYSASYRYSGVPDRFTGSGSGTDFTLTISNVQSEDLAEYFCQQYNNYPLTFGAGTKLELKR
notes: as for B1
B4: D30841AE05-SG1 (antibody, human IgG1, kappa, V domains shown)
VH: QVQLKESGPALVKPTQTLTLTCTFSGFSLSSSYDMGWVRQAPGQGLEWMGTIYTGDYSTDYASWAKGRVTITADESTSTAYMELSSLRSEDTAVYYCARNTGYGYFGLWGQGTLVTVSS
VL: DIQLTQSPSFLSASVGDRVTITCQSTESVYGSDWLSWYQQKPGQPPKLLIYQASNLEIGVPSRFSGSGSGTDFTLTINSLEAEDAATYYCQGYYSGYIYAFGGGTKVEIKR
notes: Humanized variant of DLA0841 with SG1 heavy and SK1 light constant regions; Labelled with NHS-PEG4-Biotin when used as the first (immobilized) antibody in the Octet assay
B5: DL312-SG1 (antibody, human IgG1, kappa, V domains shown)
VH: EVKLVESGGGLVQPGGSLSLSCAASGFTFTDYYMNWVRQPPGKALEWLALIRNKANGYTTEYNASVKGRFTISRDNSQNILYLQMNALRAEDSATYYCARDSDGYYEYYFDYWGQGTTLTVSS
VL: DIQMTQSPSSLSASLGERVSLTCRASQEISDYLSWLQQKPDGTIKRLIFAASTLDSGVPKRFSGSRSGSDFSLSISSLESEDFADYYCLQYASYPYTFGSGTKLEIKR
notes: as for B1

Biological target: T1, recombinant human DLL3
Assay: Octet binning on SA sensor; Antibody A (biotinylated, loaded first): D30316AE02-SG1; then 20 nM human DLL3, then 80 nM Antibody B
Protocol: (§1) Octet (registered trademark) RED384 (Fortebio) was used to perform competitive binding assays by epitope binning for a panel of antibodies. A biotinylated antibody (DL301-SG1, DL306-SG1, DL309-SG1, DL312-SG1, D30316AE02-SG1, and D30841AE05-SG1) at 40 nM was first loaded to a streptavidin (SA) biosensor. Next, the sensor is exposed to 20 nM of human DLL3, followed by exposure to 80 nM of second antibody. The second antibodies are DL301-SG1, DL306-SG1, DL309-SG1, DL312-SG1, D30316AE02-SG1, D30841AE05-SG1, DLL3-14-SG1, DLL3-22-SG1, DLL3-4-SG1 and DLL3-6-SG1. Raw data was processed using ForteBio's Data Analysis Software 7.0 and the antibody pairs were assessed for competitive binding. Additional binding by the second antibody indicates an unoccupied epitope (non-competitor), while no binding indicates epitope blocking (competitor).
(§2) The competition ratio of antibody B to antibody A was calculated using the following equation: Competition Ratio (Antibody B to Antibody A)=[Binding Response (Antibody B-Antigen)]/[Binding Response (Antigen-Antibody A)]

**Q.** For B1, which “competition ratio (Antibody B to Antibody A)” value (from here on “competition ratio”) is on record?
**A.** Its value is 1.5.

**Q.** Which “competition ratio” value does the source give for B2 here?
**A.** The value was 1.4.

**Q.** B3 was tested. Which “competition ratio” value did it give?
**A.** The value was 1.4.

**Q.** B4 was tested. Which “competition ratio” value did it give?
**A.** Its value is 1.3.

**Q.** B5 was tested. Which “competition ratio” value did it give?
**A.** Its value is 1.4.

Biological target: T1, recombinant human DLL3
Assay: Octet binning on SA sensor; Antibody A (biotinylated, loaded first): DL301-SG1; then 20 nM human DLL3, then 80 nM Antibody B
Protocol: as §1, §2

**Q.** For B1, which “competition ratio” value is on record?
**A.** The value was 1.1.

**Q.** For B2, which “competition ratio” value is on record?
**A.** The value was 1.2.

**Q.** Which “competition ratio” value does the source give for B3 here?
**A.** Its value is 1.4.

**Q.** Which “competition ratio” value does the source give for B4 here?
**A.** The value was 0.9.

**Q.** How did the “competition ratio” value turn out when B5 was run?
**A.** Its value is 1.

Biological target: T1, recombinant human DLL3
Assay: Octet binning on SA sensor; Antibody A (biotinylated, loaded first): DL309-SG1; then 20 nM human DLL3, then 80 nM Antibody B
Protocol: as §1, §2

**Q.** For B1, which “competition ratio” value is on record?
**A.** Its value is 0.9.

**Q.** How did the “competition ratio” value turn out when B2 was run?
**A.** Its value is 1.

**Q.** Which “competition ratio” value does the source give for B3 here?
**A.** Its value is -0.1.

**Q.** With B4 as the binder, how does the “competition ratio” value read?
**A.** The value was 0.8.

**Q.** B5 was tested. Which “competition ratio” value did it give?
**A.** Its value is 1.1.

Biological target: T1, recombinant human DLL3
Assay: Octet binning on SA sensor; Antibody A (biotinylated, loaded first): D30841AE05-SG1; then 20 nM human DLL3, then 80 nM Antibody B
Protocol: as §1, §2

**Q.** Which “competition ratio” value does the source give for B1 here?
**A.** Its value is 0.

**Q.** With B2 as the binder, how does the “competition ratio” value read?
**A.** The value was 1.4.

**Q.** How did the “competition ratio” value turn out when B3 was run?
**A.** The value was 1.5.

**Q.** Which “competition ratio” value does the source give for B4 here?
**A.** Its value is 0.

**Q.** With B5 as the binder, how does the “competition ratio” value read?
**A.** The value was 1.4.

Biological target: T1, recombinant human DLL3
Assay: Octet binning on SA sensor; Antibody A (biotinylated, loaded first): DL306-SG1; then 20 nM human DLL3, then 80 nM Antibody B
Protocol: as §1, §2

**Q.** Which “competition ratio” value does the source give for B1 here?
**A.** The value was 0.

**Q.** How did the “competition ratio” value turn out when B2 was run?
**A.** Its value is 1.4.

**Q.** For B3, which “competition ratio” value is on record?
**A.** Its value is 1.4.

**Q.** Which “competition ratio” value does the source give for B4 here?
**A.** The value was -0.1.

**Q.** B5 was tested. Which “competition ratio” value did it give?
**A.** The value was 1.4.

Biological target: T1, recombinant human DLL3
Assay: Octet binning on SA sensor; Antibody A (biotinylated, loaded first): DL312-SG1; then 20 nM human DLL3, then 80 nM Antibody B
Protocol: as §1, §2

**Q.** B1 was tested. Which “competition ratio” value did it give?
**A.** Its value is 1.2.

**Q.** With B2 as the binder, how does the “competition ratio” value read?
**A.** Its value is 1.5.

**Q.** How did the “competition ratio” value turn out when B3 was run?
**A.** The value was 1.5.

**Q.** With B4 as the binder, how does the “competition ratio” value read?
**A.** Its value is 1.1.

**Q.** B5 was tested. Which “competition ratio” value did it give?
**A.** The value was 0.2.
